Assay results as given in patent US20190015483A1 (CSL BEHRING RECOMBINANT FACILITY, published 2019).
Read-outs that look alike come from different tables or passages of the source.

T1: recombinant Factor VIII (CSL627, rVIII-SingleChain) (Homo sapiens (Human), UniProt P00451 20-2351)
T1 construct: also called FVIII
T1 sequence: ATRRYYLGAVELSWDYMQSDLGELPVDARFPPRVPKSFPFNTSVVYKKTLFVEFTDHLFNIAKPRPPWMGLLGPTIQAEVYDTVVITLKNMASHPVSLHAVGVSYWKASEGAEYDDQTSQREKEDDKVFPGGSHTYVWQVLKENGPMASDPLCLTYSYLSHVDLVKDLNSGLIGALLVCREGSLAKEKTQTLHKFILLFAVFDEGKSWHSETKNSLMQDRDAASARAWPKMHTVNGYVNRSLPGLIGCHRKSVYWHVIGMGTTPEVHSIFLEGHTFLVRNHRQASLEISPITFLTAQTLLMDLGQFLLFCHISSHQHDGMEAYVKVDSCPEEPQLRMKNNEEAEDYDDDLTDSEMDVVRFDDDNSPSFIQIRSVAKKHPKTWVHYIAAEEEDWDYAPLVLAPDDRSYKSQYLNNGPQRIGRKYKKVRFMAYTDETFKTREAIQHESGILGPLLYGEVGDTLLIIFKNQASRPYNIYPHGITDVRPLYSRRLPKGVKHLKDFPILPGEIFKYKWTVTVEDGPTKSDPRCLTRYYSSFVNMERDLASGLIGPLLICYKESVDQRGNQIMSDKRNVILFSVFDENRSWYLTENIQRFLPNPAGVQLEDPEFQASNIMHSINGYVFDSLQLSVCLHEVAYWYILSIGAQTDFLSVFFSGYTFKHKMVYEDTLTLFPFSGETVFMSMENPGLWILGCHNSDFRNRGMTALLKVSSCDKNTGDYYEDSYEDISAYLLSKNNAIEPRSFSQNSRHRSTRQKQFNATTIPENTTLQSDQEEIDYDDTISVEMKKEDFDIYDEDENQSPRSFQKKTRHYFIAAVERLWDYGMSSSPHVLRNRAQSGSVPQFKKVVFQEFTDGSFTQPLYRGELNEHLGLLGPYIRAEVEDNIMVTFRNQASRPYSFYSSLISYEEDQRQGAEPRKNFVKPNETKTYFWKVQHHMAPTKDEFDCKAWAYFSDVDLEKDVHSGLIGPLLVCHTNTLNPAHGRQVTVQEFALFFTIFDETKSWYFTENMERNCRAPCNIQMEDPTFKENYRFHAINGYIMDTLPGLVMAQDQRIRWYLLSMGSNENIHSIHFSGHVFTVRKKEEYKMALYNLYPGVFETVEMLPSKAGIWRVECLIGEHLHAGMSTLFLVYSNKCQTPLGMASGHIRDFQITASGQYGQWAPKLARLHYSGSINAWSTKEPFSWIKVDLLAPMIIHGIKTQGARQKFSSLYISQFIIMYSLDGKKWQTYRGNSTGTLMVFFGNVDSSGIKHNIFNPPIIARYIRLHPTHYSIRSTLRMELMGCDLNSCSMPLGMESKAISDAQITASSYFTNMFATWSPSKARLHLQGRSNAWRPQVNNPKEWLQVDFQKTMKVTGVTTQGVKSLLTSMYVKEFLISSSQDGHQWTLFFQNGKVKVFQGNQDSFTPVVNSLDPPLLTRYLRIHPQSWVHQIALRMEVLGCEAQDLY

B1: Hu-vWF[764-1270]-8His S764P-S766Y (other)
chain: PLYCRPPMVKLVCPADNLRAEGLECTKTCQNYDLECMSMGCVSGCLCPPGMVRHENRCVALERCPCFHQGKEYAPGETVKIGCNTCVCRDRKWNCTDHVCDATCSTIGMAHYLTFDGLKYLFPGECQYVLVQDYCGSNPGTFRILVGNKGCSHPSVKCKKRVTILVEGGEIELFDGEVNVKRPMKDETHFEVVESGRYIILLLGKALSVVWDRHLSISVVLKQTYQEKVCGLCGNFDGIQNNDLTSSNLQVEEDPVDFGNSWKVSSQCADTRKVPLDSSPATCHNNIMKQTMVDSSCRILTSDVFQDCNKLVDPEPYLDVCIYDTCSCESIGDCACFCDTIAAYAHVCAQHGKVVTWRTATLCPQSCEERNLRENGYECEWRYNSCAPACQVTCQHPEPLACPVQCVEGCHAHCPPGKILDELLQTCVDPEDCPVCEVAGRRFASGKKVTLNPSDPEHCQICHCDVVNLTCEACQEPGGLVVPPTDAPVSPTTLYVEDISEPPLHDFHHHHHHHH
B2: Hu-vWF[764-1270]-8His S764T/S766Y (other)
chain: TLYCRPPMVKLVCPADNLRAEGLECTKTCQNYDLECMSMGCVSGCLCPPGMVRHENRCVALERCPCFHQGKEYAPGETVKIGCNTCVCRDRKWNCTDHVCDATCSTIGMAHYLTFDGLKYLFPGECQYVLVQDYCGSNPGTFRILVGNKGCSHPSVKCKKRVTILVEGGEIELFDGEVNVKRPMKDETHFEVVESGRYIILLLGKALSVVWDRHLSISVVLKQTYQEKVCGLCGNFDGIQNNDLTSSNLQVEEDPVDFGNSWKVSSQCADTRKVPLDSSPATCHNNIMKQTMVDSSCRILTSDVFQDCNKLVDPEPYLDVCIYDTCSCESIGDCACFCDTIAAYAHVCAQHGKVVTWRTATLCPQSCEERNLRENGYECEWRYNSCAPACQVTCQHPEPLACPVQCVEGCHAHCPPGKILDELLQTCVDPEDCPVCEVAGRRFASGKKVTLNPSDPEHCQICHCDVVNLTCEACQEPGGLVVPPTDAPVSPTTLYVEDISEPPLHDFHHHHHHHH
B3: Hu-vWF[764-1270]-8His S764V/S766Y (other)
chain: VLYCRPPMVKLVCPADNLRAEGLECTKTCQNYDLECMSMGCVSGCLCPPGMVRHENRCVALERCPCFHQGKEYAPGETVKIGCNTCVCRDRKWNCTDHVCDATCSTIGMAHYLTFDGLKYLFPGECQYVLVQDYCGSNPGTFRILVGNKGCSHPSVKCKKRVTILVEGGEIELFDGEVNVKRPMKDETHFEVVESGRYIILLLGKALSVVWDRHLSISVVLKQTYQEKVCGLCGNFDGIQNNDLTSSNLQVEEDPVDFGNSWKVSSQCADTRKVPLDSSPATCHNNIMKQTMVDSSCRILTSDVFQDCNKLVDPEPYLDVCIYDTCSCESIGDCACFCDTIAAYAHVCAQHGKVVTWRTATLCPQSCEERNLRENGYECEWRYNSCAPACQVTCQHPEPLACPVQCVEGCHAHCPPGKILDELLQTCVDPEDCPVCEVAGRRFASGKKVTLNPSDPEHCQICHCDVVNLTCEACQEPGGLVVPPTDAPVSPTTLYVEDISEPPLHDFHHHHHHHH

Assays:
[1] = molecular target: T1, recombinant Factor VIII (CSL627, …); test: SPR, anti-His capture
In short: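 Capture 40-150 RU mutant from medium on anti-His (14,000 RU) CM-5; 1 nM FVIII, 5 min on / 5 min off; reference spot + blank subtracted; 1:1 fit.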

[2] = molecular target: T1, recombinant Factor VIII (CSL627, …); test: SPR, anti-His capture; remark: listed apart in the source
Experimental: Binding kinetics were investigated by surface plasmon resonance using a Biacore 4000 biosensor at 37° C. Each mutant was captured from cell culture medium to a density of 40-150 RU on a CM-5 sensor chip pre-immobilised with anti-His antibody (14,000 RU). In an initial screening study, FVIII was injected over the captured mutants for 5 minutes at 1 nM and dissociation monitored for 5 minutes.
All sensorgrams were double referenced by subtraction of signals from a reference spot (containing only immobilised anti His antibody) and from a blank injection. Binding kinetics were determined by fitting the double referenced sensorgrams to a 1:1 kinetic model.

Row | Binder | Kd [1] [pM] | koff [1] [s⁻¹] | kon [1] [M⁻¹ s⁻¹] | Kd [2] [pM] | koff [2] [s⁻¹] | kon [2] [M⁻¹ s⁻¹]
1 | B1 | 7.16 | 7.71e-05 | 1.08e+07 | 7.16 | 7.71e-05 | 1.08e+07
2 | B2 |  |  |  | 5.27 | 0.000136 | 2.58e+07
3 | B3 |  |  |  | 2.15 | 6.41e-05 | 2.99e+07
